Data reported in patent publication US20260227386A1, “DIAGNOSIS AND TREATMENT OF NEUROGENIC HETEROTOPIC OSSIFICATION” (SERVIZO GALEGO DE SAÚDE, priority 2023, published 2026).

What was measured:
SaOS2 cells [1] = test: Inflammatory stimuli (IL1β, LPS) on SaOS2 differentiated with ACM, RT-PCR; assay type: cell-based, Human
Procedure: To determine the effect of an external inflammatory factor on the differentiation process of SaOS2 stimulated with ACM, SaOS2 cells were seeded and stimulated with the ACM in the presence and absence of 0.1 ng/ml of IL1 and 100 ng/mL of lipopolysaccharide (LPS). To do this, once the SaOS2 completed the 3-day differentiation with the ACM, these cells were treated with the inflammatory stimuli and were differentiated for a further 48h.
(§1) RNA was extracted using TriReagent® and the RNA extraction Kit E.Z.N.A. Total RNA Kit I® (Omega Bio-Tek Inc., Norcross, GA, USA) following the manufacturer's instructions. The gene expression of bone related markers, inflammatory and adipogenic markers were measured using iTaq Universal SYBR Green Supermix (BioRad Laboratories, Hercules, CA, USA). Relative quantitation was performed using the ΔΔCt Comparative Method. Results are expressed as 2^−ΔΔCt versus unstimulated control or DM.

C3H10T1/2 cells [2] = test: RNA quantification and cell counting; assay type: cell-based; conditions: C3H10T1/2 differentiated to adipocytes seven days, TGFβi 3 μg/mL
Source text: The RNA of the differentiated C3H10T1/2 was quantified using a NanoDrop One® spectrophotometer (Thermo Fisher Scientific, Wlatham, MA, USA).
Moreover, microscopic photos of the different conditions were taken. Subsequently, the photograph was divided into 3 rectangles of equal size and positioned in the same place in the images. The live cells were counted, and the number of cells was compared with the rest of the samples.

C3H10T1/2 cells [3] = test: C3H10T1/2 differentiation into adipocytes, gene expression by RT-PCR; assay type: cell-based; conditions: C3H10T1/2 differentiated into adipocytes seven days
Procedure: (§2) SaOS2 were differentiated for 3 days, C3H10T1/2 for 7 days, and ATDC5 for 14 days. In order to induce cell differentiation, the media were changed three times a week in SaOS2 and ATDC5 cells, starting the process 24 h post-culture. In these cells, the same medium was used in all the changes made. Regarding the C3H10T1/2, two media were used to differentiate them into adipocytes: the induction medium which was changed after 6 h post-culture, and the maintenance medium which replaced the induction medium after 4 days. after culture. All cells were seeded in 24-well plates (Thermo Fisher Scientific, Waltham, MA, USA).
Regarding the C3H10T1/2, due to the difference in the composition of their differentiation media and that of the SaOS2, we proceeded with the concentration and purification of the 2 mL DM and ACM proteins, using the filter units 3 kDa Amicon® Ultra-0.5 mL Centrifugal Filters Ultracel 3K (Millipore, Burlington, Massachusetts, USA) following the supplier's instructions. Once the process was finished, the pellets were resuspended in the differentiation medium corresponding to the cell line, filtered through a 0.2 μm filter (Thermo Fisher Scientific, Wlatham, MA, USA), and cells were differentiated for 7 days as was previously described. For cell differentiation stimulated with the NCM, NCM was concentrated using Amicon® Ultra-0.5 mL Centrifugal Filters Ultracel 3K 3 kDa centrifugal filter units, according to the supplier's specifications. Then, they were resuspended with the C3H10T1/2 differentiation medium and filtered through a 0.2 μm filter. Finally, C3H10T1/2 cells were differentiated into adipocytes in the presence and absence of NCM for 7 days, as previously described.
(§3) SaOS2, C3H10T1/2, and ATDC5 cells were differentiated in the presence or absence of 3 μg/mL of human recombinant protein transforming growth factor beta-induced (TGFβi), similar concentration to TGFβi-blood levels. It should be noted that this protein was added newly in every medium change corresponding to the differentiation of each cell line.
as §1

SaOS2 cells [4] = test: SaOS2 differentiation into osteoblasts, gene expression by RT-PCR; assay type: cell-based, Human; conditions: SaOS2 differentiated into osteoblasts three days, presence or absence of stimulus (ACM; TGFβi 3 μg/mL)
Procedure: as §2
After 24 h SaOS2 post-culture, the medium was changed to ACM, and they were differentiated for 3 days.
as §3, §1

ATDC5 cells = test: ATDC5 differentiation into chondrocytes, gene expression by RT-PCR; assay type: cell-based; conditions: TGFβi 3 μg/mL
Procedure: as §2, §3, §1

[5] = SaOS2 differentiated three days with ACM, then IL1β 0.1 ng/mL for 48h
[6] = presence or absence of stimulus (ACM; NCM; TGFβi 3 μg/mL)
[7] = ATDC5 differentiated into chondrocytes three, seven, fourteen days

In the case of IL1β: inflammatory stimulus, 0.1 ng/ml, the “BMP2 gene expression induced by ACM” value (SaOS2 cells [1]; [5]) is reported as “increased”, the CCL2 gene expression (SaOS2 cells [1]; [5]) is reported as “increased” and the IL6 gene expression (SaOS2 cells [1]; [5]) is reported as “increased”. The “LIF gene expression induced by ACM” value (SaOS2 cells [1]; [5]) was “increased”, the SPP1 gene expression (SaOS2 cells [1]; [5]) was “did not modify” and the VCAM gene expression (SaOS2 cells [1]; [5]) was “increased”.

In the case of lipopolysaccharide [LPS], the “inflammatory profile or bone metabolism” value (SaOS2 cells [1]; SaOS2 differentiated three days with or without ACM, then LPS 100 ng/ml for 48h) is reported as “did not alter”.

B1: TGFβi: human recombinant protein transforming growth factor beta-induced, used at 3 μg/mL (protein)
chain: GPAKSPYQLVLQHSRLRGRQHGPNVCAVQKVIGTNRKYFTNCKQWYQRKICGKSTVISYECCPGYEKVPGEKGCPAALPLSNLYETLGVVGSTTTQLYTDRTEKLRPEMEGPGSFTIFAPSNEAWASLPAEVLDSLVSNVNIELLNALRYHMVGRRVLTDELKHGMTLTSMYQNSNIQIHHYPNGIVTVNCARLLKADHHATNGVVHLIDKVISTITNNIQQIIEIEDTFETLRAAVAASGLNTMLEGNGQYTLLAPTNEAFEKIPSETLNRILGDPEALRDLLNNHILKSAMCAEAIVAGLSVETLEGTTLEVGCSGDMLTINGKAIISNKDILATNGVIHYIDELLIPDSAKTLFELAAESDVSTAIDLFRQAGLGNHLSGSERLTLLAPLNSVFKDGTPPIDAHTRNLLRNHIIKDQLASKYLYHGQTLETLGGKKLRVFVYRNSLCIENSCIAAHDKRGRYGTLFTMDRVLTPPMGTVMDVLKGDNRFSMLVAAIQSAGLTETLNREGVYTVFAPTNEAFRALPPRERSRLLGDAKELANILKYHIGDEILVSGGIGALVRLKSLQGDKLEVSLKNNVVSVNKEPVAEPDIMATNGVVHVITNVLQPPANRPQERGDELADSALEIFKQASAFSRASQRSVRLAPVYQKLLERMKH
With B1 the “cell proliferation: amount of RNA” value (C3H10T1/2 cells [2]) was “increase”, the “cell proliferation: number of cells” value (C3H10T1/2 cells [2]) was “increase” and the “cell proliferation: amount of RNA” value (C3H10T1/2 cells [2]; listed as TGFBi) was “differences on cell proliferation were observed”. The “cell proliferation: number of cells” value (C3H10T1/2 cells [2]; listed as TGFBi) was “differences on cell proliferation were observed”, the ADIPOQ gene expression (C3H10T1/2 cells [3]; [6]) was “reduced” and the AXIN2 gene expression (C3H10T1/2 cells [3]; [6]) was “no modifications”. For the same molecule, the CCL2 gene expression (C3H10T1/2 cells [3]; [6]) was “no modifications”, the CD44 gene expression (C3H10T1/2 cells [3]; [6]) was “increase” and the FABP4 gene expression (C3H10T1/2 cells [3]; [6]) was “reduced”. The GPNMB gene expression (C3H10T1/2 cells [3]; [6]) was “no modifications”, the IL6 gene expression (C3H10T1/2 cells [3]; [6]) was “no modifications” and the PLIN2 gene expression (C3H10T1/2 cells [3]; [6]) was “reduced”. The PPARG gene expression (C3H10T1/2 cells [3]; [6]) was “reduction was statistically significant”, the RUNX2 gene expression (C3H10T1/2 cells [3]; [6]) was “increase” and the SPP1 gene expression (C3H10T1/2 cells [3]; [6]) was “increase”. The VCAM gene expression (C3H10T1/2 cells [3]; [6]) was “increase”, the PPARG gene expression (C3H10T1/2 cells [3]; presence or absence of stimulus (ACM; NCM; TGFβi 3 μg/mL), listed as TGFBi) was “significantly decreased” and the TGFβi gene expression (C3H10T1/2 cells [3]; presence or absence of stimulus (ACM; TGFβi 3 μg/mL)) was “increase”. For the same molecule, the AXIN2 gene expression (SaOS2 cells [4]) was “did not modify”, the BMP2 gene expression (SaOS2 cells [4]) was “increased” and the BMP4 gene expression (SaOS2 cells [4]) was “did not modify”. For the same molecule, the CCL2 gene expression (SaOS2 cells [4]) was “increased”, the CD44 gene expression (SaOS2 cells [4]) was “did not modify” and the GPNMB gene expression (SaOS2 cells [4]) was “did not modify”. The LIF gene expression (SaOS2 cells [4]) was “did not modify”, the OPG gene expression (SaOS2 cells [4]) was “did not modify” and the PDGFRβ gene expression (SaOS2 cells [4]) was “did not modify”. The PDGFβ gene expression (SaOS2 cells [4]) was “did not modify”, the RANKL gene expression (SaOS2 cells [4]) was “did not modify” and the RANKL/OPG ratio (SaOS2 cells [4]) was “did not modify”. The RUNX2 gene expression (SaOS2 cells [4]) was “did not modify”, the SPP1 gene expression (SaOS2 cells [4]) was “increased” and the TGFβi gene expression (SaOS2 cells [4]) was “increased”. The VCAM gene expression (SaOS2 cells [4]) was “increased”, the BMP2 gene expression (SaOS2 cells [4]; listed as TGFBi recombinant) was “partial recapitulation” and the CCL2 gene expression (SaOS2 cells [4]; listed as TGFBi recombinant) was “partial recapitulation”. The SPP1 gene expression (SaOS2 cells [4]; listed as TGFBi recombinant) was “partial recapitulation”, the VCAM gene expression (SaOS2 cells [4]; listed as TGFBi recombinant) was “partial recapitulation” and the COL2A1 gene expression (ATDC5 cells; [7]) was “decrease”. For the same molecule, the COLX gene expression (ATDC5 cells; [7]) was “decrease”, the SOX9 gene expression (ATDC5 cells; [7]) was “decrease” and the SPP1 expression (ATDC5 cells; early stages of ATDC5 differentiation) was “increased”.
